Broadly, the Kd is the concentration at which binding is half-saturated. Low values mean higher affinity, high ones lower affinity. The term koff denotes a measure of how fast the partners let go of each other. Broadly, the kon is the second-order rate constant of association. Higher therefore signals faster complex formation. For orientation: EC50 means the concentration at which the effect is half-maximal.

The results in this text go back to patent publication US20240392020A1 (JIANGSU HENGRUI PHARMACEUTICALS, published 2024).

One experiment has as its target T1, human PDL1-his (human, UniProt Q9NZQ7 19-239).
T1 construct: bought; also called hPDL1
Put plainly: SPR Biacore T200, antibody captured on Protein A chip. On the technique in general: Surface plasmon resonance follows binding to a sensor surface in real time, without labels.

Experiment [1] concerns the target T2, CEA on MKN45 cells (UniProt P06731 35-685).
T2 construct: whole, on cells
T2 sequence (looked up): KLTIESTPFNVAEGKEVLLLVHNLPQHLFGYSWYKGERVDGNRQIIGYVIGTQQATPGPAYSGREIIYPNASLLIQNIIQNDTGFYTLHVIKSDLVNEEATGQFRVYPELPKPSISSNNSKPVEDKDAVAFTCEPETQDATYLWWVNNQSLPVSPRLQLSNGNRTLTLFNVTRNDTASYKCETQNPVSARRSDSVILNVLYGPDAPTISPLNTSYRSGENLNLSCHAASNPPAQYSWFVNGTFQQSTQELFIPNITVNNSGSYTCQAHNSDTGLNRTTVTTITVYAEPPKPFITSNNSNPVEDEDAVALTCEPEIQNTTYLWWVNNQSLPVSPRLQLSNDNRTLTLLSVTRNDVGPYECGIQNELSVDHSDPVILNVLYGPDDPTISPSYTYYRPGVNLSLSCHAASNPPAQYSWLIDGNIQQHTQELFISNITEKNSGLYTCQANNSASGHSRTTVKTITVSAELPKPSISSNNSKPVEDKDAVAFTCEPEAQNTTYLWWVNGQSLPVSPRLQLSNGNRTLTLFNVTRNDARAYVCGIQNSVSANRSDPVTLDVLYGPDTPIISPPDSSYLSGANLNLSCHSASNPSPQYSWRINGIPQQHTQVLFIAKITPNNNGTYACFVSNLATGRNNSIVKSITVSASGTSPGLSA
As to the kind of experiment: FACS, MKN45 cells. Background: In flow cytometry, cells or beads pass a laser one at a time.

The target in experiment [2] is T2, CEA on MKN45 cells. Put plainly: FACS, MKN45 cells. This is another data set of the same source.
A further experiment concerns the target T3, hNGF (human, UniProt P01138 122-241, limits assumed).
T3 construct: bought
Put plainly: ELISA. (In general: An ELISA detects its analyte on a solid surface through an enzyme-linked reagent.)

Another experiment has as its target T4, human TIGIT-his (human, UniProt Q495A1 22-141, limits assumed).
T4 construct: bought; also called hTIGIT
T4 sequence (looked up): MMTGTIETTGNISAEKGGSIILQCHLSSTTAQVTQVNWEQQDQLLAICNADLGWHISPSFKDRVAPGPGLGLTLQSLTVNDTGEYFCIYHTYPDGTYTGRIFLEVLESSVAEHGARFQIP
As to the kind of experiment: SPR Biacore T200, antibody captured on Protein A chip.

Experiment [3] addresses T5, B7H3 on the recombinant cell line CT26-B7H3 (UniProt Q5ZPR3 29-534, limits assumed).
T5 construct: whole, on cells
T5 sequence (looked up): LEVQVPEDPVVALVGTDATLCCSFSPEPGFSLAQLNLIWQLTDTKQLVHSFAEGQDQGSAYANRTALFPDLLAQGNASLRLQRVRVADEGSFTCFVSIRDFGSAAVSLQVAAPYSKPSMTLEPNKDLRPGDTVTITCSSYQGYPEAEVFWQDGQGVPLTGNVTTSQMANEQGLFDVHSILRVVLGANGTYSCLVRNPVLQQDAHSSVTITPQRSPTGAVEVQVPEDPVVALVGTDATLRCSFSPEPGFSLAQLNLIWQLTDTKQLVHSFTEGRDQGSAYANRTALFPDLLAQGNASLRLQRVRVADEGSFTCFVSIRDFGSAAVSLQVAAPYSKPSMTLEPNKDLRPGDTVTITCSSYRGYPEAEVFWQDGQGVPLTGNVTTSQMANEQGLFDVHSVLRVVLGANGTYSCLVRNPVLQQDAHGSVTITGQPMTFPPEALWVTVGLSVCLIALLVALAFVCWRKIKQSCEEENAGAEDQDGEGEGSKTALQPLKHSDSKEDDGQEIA
As to the kind of experiment: FACS, CT26-B7H3 cells.

Another experiment addresses T6, hB7H3 antigen protein (human, UniProt Q5ZPR3 29-461).
T6 construct: prepared in the laboratory
T6 sequence: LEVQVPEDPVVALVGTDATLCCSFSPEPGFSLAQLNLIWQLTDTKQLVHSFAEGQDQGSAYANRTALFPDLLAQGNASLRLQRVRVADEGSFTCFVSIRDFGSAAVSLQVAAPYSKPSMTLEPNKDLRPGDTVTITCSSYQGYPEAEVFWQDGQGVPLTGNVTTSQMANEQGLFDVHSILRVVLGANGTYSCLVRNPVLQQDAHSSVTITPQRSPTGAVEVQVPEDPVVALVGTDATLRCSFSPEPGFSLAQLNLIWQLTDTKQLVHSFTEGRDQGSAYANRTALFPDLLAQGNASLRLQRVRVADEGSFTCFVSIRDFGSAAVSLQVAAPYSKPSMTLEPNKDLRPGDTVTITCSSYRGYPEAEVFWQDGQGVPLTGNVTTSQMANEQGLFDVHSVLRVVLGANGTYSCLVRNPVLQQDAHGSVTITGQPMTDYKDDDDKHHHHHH
Put plainly: SPR Biacore T200, antibody captured on Protein A chip.

The target of the next experiment is T7, hIL-5 (human, UniProt P05113 20-134).
T7 construct: bought
As to the kind of experiment: ELISA.

The next experiment deals with T8, hTSLP (human, UniProt Q969D9 29-159).
T8 construct: bought
As to the kind of experiment: ELISA.

Numbering of substitutions follows the chain as printed. Like-named read-outs stand apart in the source and are kept apart here.

T1 sequence (Q9NZQ7 19-239 limits assumed): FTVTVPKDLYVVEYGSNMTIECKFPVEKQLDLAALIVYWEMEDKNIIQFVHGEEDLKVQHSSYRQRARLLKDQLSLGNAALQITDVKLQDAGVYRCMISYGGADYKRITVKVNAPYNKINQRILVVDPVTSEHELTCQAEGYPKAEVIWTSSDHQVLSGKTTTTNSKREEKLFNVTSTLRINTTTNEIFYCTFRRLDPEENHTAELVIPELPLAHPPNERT
T3 sequence (P01138 122-241 limits assumed): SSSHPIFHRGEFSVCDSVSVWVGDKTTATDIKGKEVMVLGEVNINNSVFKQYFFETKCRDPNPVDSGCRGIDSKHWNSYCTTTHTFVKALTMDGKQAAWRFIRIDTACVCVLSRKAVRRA
Procedure for hB7H3 antigen protein: The affinity of a test antibody for an antigen protein was determined by using a Biacore T200 (GE) instrument. […] The data obtained from the experiment was fitted with BIAevaluation version 4.1, GE software using a (1:1) Langmuir model to obtain affinity values.
Procedure for hIL-5: (§1) For an antibody targeting a soluble protein, the binding activity of the antibody against the soluble protein was detected by ELISA. […] After the blocking was completed, the blocking solution was discarded; and the plate was washed 3 times with a PBST buffer (pH 7.4, PBS containing 0.1% tween-20). 100 μL of the antibody solution diluted in a gradient was added to each well, and the mixture was incubated at 37° C. for 1 h. After the incubation was completed, the plate was washed 3 times with PBST.
Procedure for hNGF: For an antibody targeting a soluble protein, the binding activity of the antibody against the soluble protein was detected by ELISA. […] After the blocking was completed, the blocking solution was discarded; and the plate was washed 3 times with a PBST buffer (pH 7.4, PBS containing 0.1% tween-20). 100 μL of the antibody solution diluted in a gradient was added to each well, and the mixture was incubated at 37° C. for 1 h. After the incubation was completed, the plate was washed 3 times with PBST. […] The plate was washed 3 times with PBST. […] The reaction was stopped by adding 50 μL of 1 M H₂SO₄ to each well. The absorbance values at 450 nm were read on a microplate reader, the binding curves of the antibodies to an antigen were fitted with software, and the EC₅₀ values were calculated.
Procedure for hTSLP: as §1
Procedure for human PDL1-his: (§2) After dissociation was completed for each cycle, the biosensor chip was washed with 10 mM Gly-HCl at pH 1.5 for regeneration. Data were fitted using a 1:1 model.
Procedure for human TIGIT-his: as §2

B1: h1831K (antibody, human IgG1, kappa, V domains shown)
VH: QVQLVQSGAEVKKPGASVKVSCKASGYTFTSYWMHWVRQAPGQGLEWMGRITPSSGFAMYNEKFKNRVTMTRDTSTSTVYMELSSLRSEDTAVYYCARGGSSYDYFDYWGQGTTVTVSS
VL: DIVLTQSPASLAVSPGQRATITCRASESVSIHGTHLMHWYQQKPGQPPKLLIYAASKLESGVPARFSGSGSGTDFTLTINPVEAEDTANYYCQQSFEDPLTFGQGTKLEIKR
notes: also called P-IgG1; PDL1 monoclonal antibody
In the case of B1, in the experiment with human PDL1-his, the equilibrium dissociation constant (Kd) came to 0.0417 nM, the koff stood at 8.67e-05 s⁻¹ and the on-rate constant (kon) came to 2.08e+06 M⁻¹ s⁻¹.

B2: N3 (antibody)
heavy: not shown
light: EIVLTQSPGTLSLSPGERATLSCRASQNINNRFLAWYQQRPGQAPRLLIYAASSRATGVPDRFSGSGSGTDFTLTISRLEAEDFAMYHCQQYGSFPRTFGQGTMVDIKSGAPRFLTRPKAFVVSVGKDATLSCQIVGNPTPQVSWEKDQQPVAAGARFRLAQDGDLYRLTILDLALGDSGQYVCRARNAIGEAFAAVGLQVDAEA
As to B2, the 50% effective concentration (EC50) amounted to 6.45 nM with CEA on MKN45 cells [1] and 4.5 nM in the experiment with CEA on MKN45 cells [2].

B3: N6 (antibody)
heavy: not shown
light: B2 light with A111C, C133S, C184S
B3: the concentration giving a half-maximal response (EC50) with CEA on MKN45 cells [2] is 8.4 nM.

B4: I6 (antibody)
heavy: not shown
light: DIQMTQSPSSLSASVGDRVTITCRASQSISNNLNWYQQKPGKAPKLLIYYTSRFHSGVPSRFSGSGSGTDFTFTISSLQPEDIATYYCQQEHTLPYTFGQGTKLEIKSGAPRFLTRPLAFVVSVGKDATLSSQIVGNPTPQVSWEKDQLPVTAGARFRLAQDGDLYRLKILDLTLSDSGQYVSRARNAIGEAFACVGLEVGAEA
With B4, the midpoint of the response in the experiment with hNGF, the EC50, lay at 4.12 nM.

B5: I4 (antibody)
heavy: not shown
light: B4 light
Consider B5, for which, in the experiment with hNGF, the concentration giving a half-maximal response (EC50) worked out at 4.13 nM.

B6: I5 (antibody)
heavy: not shown
light: B4 light
In turn, B6 returned an EC50 in the experiment with hNGF of 3.59 nM.

B7: I7 (antibody)
heavy: not shown
light: B4 light with A119S, F120Y, T129S, T174Q
Regarding B7, in the experiment with hNGF, the concentration for a half-maximal effect (EC50) amounted to 3.15 nM.

B8: h1708-04 (antibody, human IgG1, kappa, V domains shown)
VH: EVQLVQSGAEVKKPGASVKVSCKASGYTFTNYWMHWVRQAPGQGLEWMGRIDPDSTGSKYNEKFKTRVTMTRDTSTSTVYMELSSLRSEDTAVYYCAREGAYGYYFDYWGQGTLVTVSS
VL: DIQMTQSPSSLSASVGDRVTITCRASENIYSYLAWYQQKPGKSPKLLIYNARTLAEGVPSRFSGSGSGTDFTLTISSLQPEDFATYYCQYHSGSPLPFGGGTKVEIKR
notes: also called T-IgG1; TIGIT monoclonal antibody
In the case of B8, in the experiment with human TIGIT-his, the Kd amounted to 0.0651 nM, the dissociation rate constant (koff) is 0.000139 s⁻¹ and the on-rate (kon) amounted to 2.14e+06 M⁻¹ s⁻¹.

B9: F0 (antibody, human IgG1, lambda)
heavy: not shown
light: DTVVTQEPSFSVSPGGTVTLTCGLSSGSVSTSHYPSWYQQTPGQAPRMLIYNTNTRSSGVPDRFSGSILGNKAALTITGAQADDESDYYCAIHVDRDIWVFGGGTKLTVLGQPKAAPSVTLFPPSSEELQANKATLVCLISDFYPGAVTVAWKADSSPVKAGVETTTPSKQSNNKYAASSYLSLTPEQWKSHRSYSCQVTHEGSTVEKTVAPTECS
On to B9, for which the EC50 in experiment [3] came to 1.29 nM. In the experiment with hB7H3 antigen protein, binding was put at a Kd of 13.1 nM, the koff is 0.00206 s⁻¹ and the on-rate constant (kon) turned out to be 157000 M⁻¹ s⁻¹.

B10: I2 (antibody)
heavy: not shown
light: DIQMTQSPSSLSASVGDRVTITCRASQSISNNLNWYQQKPGKAPKLLIYYTSRFHSGVPSRFSGSGSGTDFTFTISSLQPEDIATYYCQQEHTLPYTFGQGTKLEIKSGAPRFLTRPKSYTVSVGKDASLSSQIVGNPTPQVSWEKDQQPVAAGARFRLAQDGDLYRLKILDLALGDSGQYVSRARNAIGEAFACVGLQVDAEA
As for B10, the EC50 in the experiment with hNGF turned out to be 3.19 nM.

B11: I3 (antibody)
heavy: not shown
light: B4 light with Q148K, L149Q, T174Q, V196L, E199Q, G201D
For B11, the response with hNGF was half-maximal at 2.99 nM (EC50).

B12: N4 (antibody)
heavy: not shown
light: EIVLTQSPGTLSLSPGERATLSCRASQNINNRFLAWYQQRPGQAPRLLIYAASSRATGVPDRFSGSGSGTDFTLTISRLEAEDFAMYHCQQYGSFPRTFGQGTMVDIKQGSPPCFLRFPRPVRVVSGAEAELKCVVLGEPPPVVVWEKGGQQLAASERLSFPADGAEHGLLLTAALPTDAGVYVCRARNAAGEAYAAAAVTVLEPP
In the case of B12, the EC50 with CEA on MKN45 cells [1] turned out to be 5.93 nM; in the experiment with CEA on MKN45 cells [2] it was 4.6 nM.

B13: N7 (antibody)
heavy: not shown
light: B12 light with C114E, V182C
In the experiment with CEA on MKN45 cells [2], B13 returned an EC50 of 2.8 nM.

B14: N8 (antibody)
heavy: not shown
light: B12 light with C114E, C134S, V182C, C185S
B14 showed an EC50 with CEA on MKN45 cells [2] of 2.6 nM.

B15: HJ-10 (bispecific antibody, human IgG1, kappa, L234A L235A)
heavy 1: not shown
light 1: DIQMTQSPSSVSASVGDRVTITCRASQDIANYLSWYQQKPGKSPKLLIYGTSNLEVGVPSRFSGSRSGTDFTLTISSLQPEDFATYYCLQDKEFPRTFGGGTKVEIKRTVASSGAPRFLTRPKASVVSVGKDATLSCQIVGNPFPQVSWEKDKQPVTAGVRFRLAQDGDLYRLKILDLQLSDSGQYVCRARNAHGEAFACLGLQVDAEA
heavy 2: EVQLVQSGAEVKKPGSSVKVSCKASGYTFSNYLIEWVRQAPGQGLEWIGVIDPGVGDTNYNENFKGRATLTADKSTSTAYIELSSLRSEDTAVYYCAREDNTGTAFDYWGQGTTVTVSSASTKGPSVFPLAPSSKSTSGGTAALGCLVKDYFPEPVTVSWNSGALTSGVHTFPAVLQSSGLYSLSSVVTVPSSSLGTQTYICNVNHKPSNTKVDKKVEPKSCDKTHTCPPCPAPEAAGGPSVFLFPPKPKDTLMISRTPEVTCVVVDVSHEDPEVKFNWYVDGVEVHNAKTKPREEQYNSTYRVVSVLTVLHQDWLNGKEYKCKVSNKALPAPIEKTISKAKGQPREPQVCTLPPSREEMTKNQVSLSCAVKGFYPSDIAVEWESNGQPENNYKTTPPVLDSDGSFFLVSKLTVDKSRWQQGNVFSCSVMHEALHNHYTQKSLSLSPGK
light 2: SIVMTQTPLSLSVTPGQPASISCKASQSVSSDVTWYLQKPGQSPQLLIYYVSEHYTGVPDRFSGSGYGTDFTLKISRVEAEDVGVYYCQQHHRFPLTFGQGTKLEIKRTVAAPSVFIFPPSDEQLKSGTASVVCLLNNFYPREAKVQWKVDNALQSGNSQESVTEQDSKDSTYSLSSTLTLSKADYEKHKVYACEVTHQGLSSPVTKSFNRGEC
Turning to B15, the values for the EC50 with hIL-5 and in the experiment with hTSLP were 20.8 nM and 3.17 nM, respectively.

B16: HJ-11 (bispecific antibody, human IgG1, kappa, L234A L235A)
heavy 1: not shown
light 1: B15 light 1 with A115C
heavy 2: B15 heavy 2
light 2: B15 light 2
As for B16, the EC50 in the experiment with hIL-5 came out at 9.46 nM; with hTSLP, 3 nM.
